The values below come from US20140227280A1 (CENTRE NATIONAL DE LA RECHERCHE SCIENTIFIQUE, published 2014).

To fix the notation:
B2: mouse MCM8 protein (other)
chain: MSGAYRGRGFGRGRFQSWKRGRGGGNFSGRWRERENRVDLNEASGKHASAQASQPLLQQSTLDQFIPYKGWKLYFSEVYSNNSPFIEKIQAFEKFFTRHIDLYDKDEIERKGSILVDFKELTKADEITNLIPDIENALRDAPEKTLACMGLAIHQVLTKDLERHAAELQAQEGLSNGGETMVNVPHIYARVYNYEPLTHLKNIRATCYGKYISIRGTVVRVSNIKPLCTNMAFQCAACGEIQSFPLPDGKYTLPTKCPVPACRGRSFAPLRSSPLTVTLDWQLIKIQELMSDAQREAGRIPRTIECELVHDLVDSCVPGDTVTVTGIVKVSNSEEGSRNKNDKCMFLLYIEANSVSNSKGPKAQTAEDGCKHGTLMEFSLKDLYAIREIQAEENLLKLVVNSLCPVIFGHELVKAGLTLALFGGSQKYADDKNRIPIRGDPHVLIVGDPGLGKSQMLQAACNVAPRGVYVCGNTTTSSGLTVTLSKDSSSGDFALEAGALVLGDQGICGIDEFDKMGNQHQALLEAMEQQSISLAKAGVVCSLPARTSIVAAANPVGGHYNKARTVSENLKMGSALLSRFDLVFILLDTPNEQHDHLLSEHVIAIRAGKQKAVSSATVTRVLSQDSNTSVLEVVSEKPLSERLKVAPGEQTDPIPHQLLRKYIGYARQYVHPRLSTDAAQALQDFYLELRKQSQRVGSSPITTRQLESLIRLTEARARLELREEATREDAEDIIEIMKHSMLGTYSDEFGNLDFERSQHGSGMSNRSTAKRFISALNSIAERTYNNIFQYHQLRQIAKELNIQVADFENFIGSLNDQGYLLKKGPKIYQLQTM
notes: Endogenous protein in mouse testes extracts and MEF cell extracts

Assay [1] concerns the target B2. Nature of the assay: co-immunoprecipitation from mouse testes extracts, western blot (FIG. 18A). An excerpt:
(§1) FIG. 18A represents immunoprecipitations of MCM8 (IP anti-MCM8; lane C) and MCM9 (IP anti-MCM9; lane D) from testes extracts blotted against MCM9 (panel 1), MCM8 (panel 2), MCM2 (panel 3) and MCM5 (panel 4). To normalize the loading, IgGs of each IP are also shown (panel 5).

In assay [2] the target is T1, MCM2 (mouse, UniProt P97310 2-904).
T1 construct: Detected by western blot (sc-9839) in the immunoprecipitates from mouse testes extracts; also called member of the MCM2-7 complex
The description is as above.
Source text: as §1

T1 sequence (P97310 2-904 limits assumed): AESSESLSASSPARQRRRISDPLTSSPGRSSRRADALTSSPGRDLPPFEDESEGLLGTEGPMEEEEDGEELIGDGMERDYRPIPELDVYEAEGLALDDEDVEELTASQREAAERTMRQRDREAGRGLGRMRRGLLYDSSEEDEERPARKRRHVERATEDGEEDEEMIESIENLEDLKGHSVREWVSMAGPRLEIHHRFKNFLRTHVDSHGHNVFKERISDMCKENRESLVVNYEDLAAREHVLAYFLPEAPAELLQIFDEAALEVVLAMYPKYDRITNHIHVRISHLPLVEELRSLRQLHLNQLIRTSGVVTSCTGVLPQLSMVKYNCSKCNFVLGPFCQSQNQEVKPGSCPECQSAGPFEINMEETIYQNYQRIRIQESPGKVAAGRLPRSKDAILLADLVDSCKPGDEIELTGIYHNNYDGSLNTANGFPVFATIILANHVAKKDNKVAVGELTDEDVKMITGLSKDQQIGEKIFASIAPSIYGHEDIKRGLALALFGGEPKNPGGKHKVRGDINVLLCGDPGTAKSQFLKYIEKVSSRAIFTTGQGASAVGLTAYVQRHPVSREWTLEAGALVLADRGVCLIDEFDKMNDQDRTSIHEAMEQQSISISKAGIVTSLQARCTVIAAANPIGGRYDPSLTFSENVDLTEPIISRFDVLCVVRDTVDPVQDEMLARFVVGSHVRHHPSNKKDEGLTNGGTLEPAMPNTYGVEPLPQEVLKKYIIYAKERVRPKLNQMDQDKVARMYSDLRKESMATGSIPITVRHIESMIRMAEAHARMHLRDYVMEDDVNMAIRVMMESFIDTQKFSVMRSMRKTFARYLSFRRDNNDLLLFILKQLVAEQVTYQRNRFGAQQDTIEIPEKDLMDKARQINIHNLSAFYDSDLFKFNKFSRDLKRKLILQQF

B1: MCM5 (other, mouse, UniProt P49718 2-734, looked up)
chain: SGFDDPGIFYSDSFGGDPGAEEGQARKSQLQRRFKEFLRQYRVGTDRTGFTFKYRDELKRHYNLGEYWIEVEMEDLASFDEELADHLHKQPAEHLQLLEEAAKEVADEVTRPRPAGDELLQDIQVMLKSDASPSSIRILKSDMMSHLVKIPGIIISASAVRAKATRISIQCRSCHNTLTNIAMRPGLEGYALPRKCNMDQAGRPKCPLDPYFIMPDKCKCVDFQTLKLQELPDAVPHGEMPRHMQLYCDRYLCDKVVPGNRVTIMGIYSIKKFGLNPSKGRDRVGVGIRSSYIRVLGIQVDTDGSGRSFAGSVSPQEEEEFRRLAALPNIYELISKSISPSIFGGMDMKKAIACLLFGGSRKRLPDGLTRRGDINLLMLGDPGTAKSQLLKFVEKCSPIGVYTSGKGSSAAGLTASVIRDPSSRNFIMEGGAMVLADGGVVCIDEFDKMREDDRVAIHEAMEQQTISIAKAGITTTLNSRCSVLAAANSVFGRWDETKGEDNIDFMPTILSRFDMIFIVKDEHNEERDMMLAKHVMTLHVSALTQTQAVEGEIDLAKMKKFIAYCRARCGPRLSAEAAEKLKNRYIIMRSGARQHERDSDRRSSIPITVRQLEAIVRIAEALSKMKLQPFATEADVEEALRLFQVSTLDAALSGNLSGVEGFTTQEDQEMLSRIEKQLKRRFAIGSQVSEHSIVQDFTKQKYPEHAIRKVLQLMLRRGEIQHRMQRKVLYRLK
notes: Detected by western blot (sc-22780) in the immunoprecipitates from mouse testes extracts; also called member of the MCM2-7 complex
B1: in assay [1], the binding result is “no binding”.

In the case of B2, the binding result in assay [2] is given as “no binding”.
